Measured values as given in publication PMC7375240, “Covalent Inhibitors Allosterically Block the Activation of Rho Family Proteins and Suppress Cancer Cell Invasion” (Advanced Science, 2020).
Values belong to the binder of their own block, whether it stands above or below them.

Legend:
Rac1 = Rac1 (human, UniProt P63000 1-192); assay: pull-down; (His)6-tagged GTPase held on nickel beads, 2 µg GST-tagged partner added; 20 mM HEPES pH 7.4, 150 mM NaCl, 5 mM MgCl2, 40 mM imidazole, 4 °C, 1 h; GST-tagged protein detected by anti-GST western blot; samples without effect of DC-Rhoin; conditions: both partners purified
[1] = molecular target: T1, RalGPS1 (residues 24-289) (human, UniProt Q5JS13 24-289); assay: as above; conditions: both partners purified
T1 construct: RalGPS1, human, residues 24-289; also called respective GEF of Ral-B (pairing inferred); source: E. coli BL21 (DE3), purified (GSTTrap, Superdex 75)
T1 sequence (Q5JS13 24-289): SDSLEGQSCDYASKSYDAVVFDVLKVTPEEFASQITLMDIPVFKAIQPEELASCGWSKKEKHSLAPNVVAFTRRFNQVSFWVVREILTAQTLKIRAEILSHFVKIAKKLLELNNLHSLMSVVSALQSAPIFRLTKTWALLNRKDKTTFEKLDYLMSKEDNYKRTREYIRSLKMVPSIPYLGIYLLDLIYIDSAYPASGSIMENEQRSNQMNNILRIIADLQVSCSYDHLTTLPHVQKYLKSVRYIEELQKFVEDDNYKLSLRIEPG

binding result (Rac1): binds
B1: Tiam1 (residues 1033-1406) (domain or fragment)
chain: RQLSDADKLRKVICELLETERTYVKDLNCLMERYLKPLQKETFLTQDELDVLFGNLTEMVEFQVEFLKTLEDGVRLVPDLEKLEKVDQFKKVLFSLGGSFLYYADRFKLYSAFCASHTKVPKVLVKAKTDTAFKAFLDAQNPRQQHSSTLESYLIKPIQRVLKYPLLLRELFALTDAESEEHYHLDVAIKTMNKVASHINEMQKIHEEFGAVFDQLIAEQTGEKKEVADLSMGDLLLHTSVIWLNPPASLGKWKKEPELAAFVFKTAVVLVYKDGSKQKKKLVGSHRLSIYEEWDPFRFRHMIPTEALQVRALPSADAEANAVCEIVHVKSESEGRPERVFHLCCSSPESRKDFLKSVHSILRDKHRRQLLKTE
notes: Tiam1, murine, residues 1033-1406; The text says only 'their respective GEFs'; that this construct was the GEF used with Rac1 is inferred from the list of constructs; also called respective GEF of Rac1 (pairing inferred); source: E. coli BL21 (DE3), purified (GSTTrap, Superdex 75)

binding result [1]: binds
B2: Ral-B (natural protein, human, UniProt P11234 1-206, looked up)
chain: MAANKSKGQSSLALHKVIMVGSGGVGKSALTLQFMYDEFVEDYEPTKADSYRKKVVLDGEEVQIDILDTAGQEDYAAIRDNYFRSGEGFLLVFSITEHESFTATAEFREQILRVKAEEDKIPLLVVGNKSDLEERRQVPVEEARSKAEEWGVQYVETSAKTRANVDKVFFDLMREIRTKKMSENKDKNGKKSSKNKKSFKERCCLL
notes: RalB, human, full length, in pET28a with a TEV site; source: E. coli BL21 (DE3), purified (HisTrap FF, Superdex 75)
